This note sets out measurements from IntAct's records for PubMed 31515488.

B1: Ligand of Numb protein X 2 (Homo sapiens), Q8N448 (parent)
chain: MGTTSDEMVSVEQTSSSSLNPLCFECGQQHWTRENHLYNYQNEVDDDLVCHICLQPLLQPLDTPCGHTFCYKCLRNFLQEKDFCPLDRKRLHFKLCKKSSILVHKLLDKLLVLCPFSSVCKDVMQRCDLEAHLKNRCPGASHRRVALERRKTSRTQAEIENENGPTLLDPAGTLSPEADCLGTGAVPVERHLTSASLSTWSEEPGLDNPAFEESAGADTTQQPLSLPEGEITTIEIHRSNPYIQLGISIVGGNETPLINIVIQEVYRDGVIARDGRLLAGDQILQVNNYNISNVSHNYARAVLSQPCNTLHLTVLRERRFGNRAHNHSDSNSPREEIFQVALHKRDSGEQLGIKLVRRTDEPGVFILDLLEGGLAAQDGRLSSNDRVLAINGHDLKYGTPELAAQIIQASGERVNLTIARPGKPQPGNTIREAGNHSSSSQHHTPPPYYSRPSSHKDLTQCVTCQEKHITVKKEPHESLGMTVAGGRGSKSGELPIFVTSVPPHGCLARDGRIKRGDVLLNINGIDLTNLSHSEAVAMLKASAASPAVALKALEVQIVEEATQNAEEQPSTFSENEYDASWSPSWVMWLGLPSTLHSCHDIVLRRSYLGSWGFSIVGGYEENHTNQPFFIKTIVLGTPAYYDGRLKCGDMIVAVNGLSTVGMSHSALVPMLKEQRNKVTLTVICWPGSLV
B2: EGF-containing fibulin-like extracellular matrix protein 1 (Homo sapiens), Q12805 (parent)
chain: MLKALFLTMLTLALVKSQDTEETITYTQCTDGYEWDPVRQQCKDIDECDIVPDACKGGMKCVNHYGGYLCLPKTAQIIVNNEQPQQETQPAEGTSGATTGVVAASSMATSGVLPGGGFVASAAAVAGPEMQTGRNNFVIRRNPADPQRIPSNPSHRIQCAAGYEQSEHNVCQDIDECTAGTHNCRADQVCINLRGSFACQCPPGYQKRGEQCVDIDECTIPPYCHQRCVNTPGSFYCQCSPGFQLAANNYTCVDINECDASNQCAQQCYNILGSFICQCNQGYELSSDRLNCEDIDECRTSSYLCQYQCVNEPGKFSCMCPQGYQVVRSRTCQDINECETTNECREDEMCWNYHGGFRCYPRNPCQDPYILTPENRCVCPVSNAMCRELPQSIVYKYMSIRSDRSVPSDIFQIQATTIYANTINTFRIKSGNENGEFYLRQTSPVSAMLVLVKSLSGPREHIVDLEMLTVSSIGTFRTSSVLRLTIIVGPFSF
B3: Sperm surface protein Sp17 (Homo sapiens), Q15506 (parent)
chain: MSIPFSNTHYRIPQGFGNLLEGLTREILREQPDNIPAFAAAYFESLLEKREKTNFDPAEWGSKVEDRFYNNHAFEEQEPPEKSDPKQEESQISGKEEETSVTILDSSEEDKEKEEVAAVKIQAAFRGHIAREEAKKMKTNSLQNEEKEENK
B4: LIM/homeobox protein Lhx4 (Homo sapiens), Q969G2 (parent)
chain: MMQSATVPAEGAVKGLPEMLGVPMQQIPQCAGCNQHILDKFILKVLDRHWHSSCLKCADCQMQLADRCFSRAGSVYCKEDFFKRFGTKCTACQQGIPPTQVVRKAQDFVYHLHCFACIICNRQLATGDEFYLMEDGRLVCKEDYETAKQNDDSEAGAKRPRTTITAKQLETLKNAYKNSPKPARHVREQLSSETGLDMRVVQVWFQNRRAKEKRLKKDAGRHRWGQFYKSVKRSRGSSKQEKESSAEDCGVSDSELSFREDQILSELGHTNRIYGNVGDVTGGQLMNGSFSMDGTGQSYQDLRDGSPYGIPQSPSSISSLPSHAPLLNGLDYTVDSNLGIIAHAGQGVSQTLRAMAGGPTSDISTGSSVGYPDFPTSPGSWLDEMDHPPF
partner: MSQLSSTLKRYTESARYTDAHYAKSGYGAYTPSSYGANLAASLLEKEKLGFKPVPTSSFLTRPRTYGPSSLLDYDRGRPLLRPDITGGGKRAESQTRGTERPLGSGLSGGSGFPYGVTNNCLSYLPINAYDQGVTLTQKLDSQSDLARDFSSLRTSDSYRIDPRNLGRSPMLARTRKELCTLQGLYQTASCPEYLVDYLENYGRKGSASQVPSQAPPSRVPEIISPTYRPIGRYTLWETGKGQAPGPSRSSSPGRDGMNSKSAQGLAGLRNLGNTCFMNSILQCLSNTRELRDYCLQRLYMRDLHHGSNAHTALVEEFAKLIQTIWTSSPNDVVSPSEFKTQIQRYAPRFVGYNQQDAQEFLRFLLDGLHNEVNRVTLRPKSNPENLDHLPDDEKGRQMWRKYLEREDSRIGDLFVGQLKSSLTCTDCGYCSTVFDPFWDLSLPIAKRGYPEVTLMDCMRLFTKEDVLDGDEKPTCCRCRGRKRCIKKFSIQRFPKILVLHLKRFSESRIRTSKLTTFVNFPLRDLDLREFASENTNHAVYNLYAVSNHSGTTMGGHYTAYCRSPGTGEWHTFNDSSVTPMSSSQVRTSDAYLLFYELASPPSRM
B5: Scaffold protein ILK (Homo sapiens), Q13418 (parent)
chain: MDDIFTQCREGNAVAVRLWLDNTENDLNQGDDHGFSPLHWACREGRSAVVEMLIMRGARINVMNRGDDTPLHLAASHGHRDIVQKLLQYKADINAVNEHGNVPLHYACFWGQDQVAEDLVANGALVSICNKYGEMPVDKAKAPLRELLRERAEKMGQNLNRIPYKDTFWKGTTRTRPRNGTLNKHSGIDFKQLNFLTKLNENHSGELWKGRWQGNDIVVKVLKVRDWSTRKSRDFNEECPRLRIFSHPNVLPVLGACQSPPAPHPTLITHWMPYGSLYNVLHEGTNFVVDQSQAVKFALDMARGMAFLHTLEPLIPRHALNSRSVMIDEDMTARISMADVKFSFQCPGRMYAPAWVAPEALQKKPEDTNRRSADMWSFAVLLWELVTREVPFADLSNMEIGMKVALEGLRPTIPPGISPHVCKLMKICMNEDPAKRPKFDMIVPILEKMQDK
partner: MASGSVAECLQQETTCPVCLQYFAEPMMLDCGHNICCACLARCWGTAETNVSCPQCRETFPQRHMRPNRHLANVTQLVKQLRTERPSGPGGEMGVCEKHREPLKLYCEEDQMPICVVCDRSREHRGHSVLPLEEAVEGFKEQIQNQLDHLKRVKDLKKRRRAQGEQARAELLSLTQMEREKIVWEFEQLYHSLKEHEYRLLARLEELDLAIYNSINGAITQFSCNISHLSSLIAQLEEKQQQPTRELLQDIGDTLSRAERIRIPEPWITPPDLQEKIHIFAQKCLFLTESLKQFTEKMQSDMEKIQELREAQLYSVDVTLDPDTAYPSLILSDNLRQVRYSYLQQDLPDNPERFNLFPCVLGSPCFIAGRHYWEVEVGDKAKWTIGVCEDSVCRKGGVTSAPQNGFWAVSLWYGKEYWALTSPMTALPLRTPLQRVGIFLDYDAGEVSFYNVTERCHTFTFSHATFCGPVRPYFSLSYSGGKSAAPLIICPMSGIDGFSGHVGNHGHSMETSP
B6: Nuclear protein AMMECR1 (Homo sapiens), Q9Y4X0 (parent)
chain: MAAGCCGVKKQKLSSSPPSGSGGGGGASSSSHCSGESQCRAGELGLGGAGTRLNGLGGLTGGGSGSGCTLSPPQGCGGGGGGIALSPPPSCGVGTLLSTPAAATSSSPSSSSAASSSSPGSRKMVVSAEMCCFCFDVLYCHLYGYQQPRTPRFTNEPYPLFVTWKIGRDKRLRGCIGTFSAMNLHSGLREYTLTSALKDSRFPPMTRDELPRLFCSVSLLTNFEDVCDYLDWEVGVHGIRIEFINEKGSKRTATYLPEVAKEQGWDHIQTIDSLLRKGGYKAPITNEFRKTIKLTRYRSEKMTLSYAEYLAHRQHHHFQNGIGHPLPPYNHYS
B7: Lebercilin-like protein (Homo sapiens), O95447 (parent)
chain: MSLADLTKTNIDEHFFGVALENNRRSAACKRSPGTGDFSRNSNASNKSVDYSRSQCSCGSLSSQYDYSEDFLCDCSEKAINRNYLKQPVVKEKEKKKYNVSKISQSKGQKEISVEKKHTWNASLFNSQIHMIAQRRDAMAHRILSARLHKIKGLKNELADMHHKLEAILTENQFLKQLQLRHLKAIGKYENSQNNLPQIMAKHQNEVKNLRQLLRKSQEKERTLSRKLRETDSQLLKTKDILQALQKLSEDKNLAEREELTHKLSIITTKMDANDKKIQSLEKQLRLNCRAFSRQLAIETRKTLAAQTATKTLQVEVKHLQQKLKEKDRELEIKNIYSHRILKNLHDTEDYPKVSSTKSVQADRKILPFTSMRHQGTQKSDVPPLTTKGKKATGNIDHKEKSTEINHEIPHCVNKLPKQEDSKRKYEDLSGEEKHLEVQILLENTGRQKDKKEDQEKKNIFVKEEQELPPKIIEVIHPERESNQEDVLVREKFKRSMQRNGVDDTLGKGTAPYTKGPLRQRRHYSFTEATENLHHGLPASGGPANAGNMRYSHSTGKHLSNREEMELEHSDSGYEPSFGKSSRIKVKDTTFRDKKSSLMEELFGSGYVLKTDQSSPGVAKGSEEPLQSKESHPLPPSQASTSHAFGDSKVTVVNSIKPSSPTEGKRKIII
B8: Leucine rich adaptor protein 1 (Homo sapiens), Q96LR2 (parent)
chain: MEGTVESQTPDLRDVEGKVGRKTPEGLLRGLRGECELGTSGALLLPGASSTGHDLGDKIMALKMELAYLRAIDVKILQQLVTLNEGIEAVRWLLEERGTLTSHCSSLTSSQYSLTGGSPGRSRRGSWDSLPDTSTTDRLDSVSIGSFLDTVAPSELDEQGPPGAPRSEMDWAKVIAGGERARTEVDVAATRLGSLRAVWKPPGERLQGGPPESPEDESAKLGFEAHWFWEQCQDDVTFL
partner: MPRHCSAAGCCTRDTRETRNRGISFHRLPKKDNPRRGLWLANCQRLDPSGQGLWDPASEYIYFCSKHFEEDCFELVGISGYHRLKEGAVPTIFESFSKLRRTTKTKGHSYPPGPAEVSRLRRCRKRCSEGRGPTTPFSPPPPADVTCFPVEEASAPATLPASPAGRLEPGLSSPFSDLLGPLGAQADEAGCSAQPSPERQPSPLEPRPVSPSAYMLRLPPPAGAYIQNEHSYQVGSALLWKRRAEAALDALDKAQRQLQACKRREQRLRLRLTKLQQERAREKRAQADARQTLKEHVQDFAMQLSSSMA

In the first assay the parent is B1. As to conditions: with tbb5_human TUBB.
Take T183I: the “effect of a mutation on the interaction” value is “with no effect”.
Turning to V145I, the “effect of a mutation on the interaction” value is “with no effect”.

Another assay covers variants of B1. Conditions: with mk09_human MAPK9, P45984.
With T183I, the “effect of a mutation on the interaction” value is recorded as “with no effect”.
With Y266C, the “effect of a mutation on the interaction” value was “with no effect”.
Consider S141A, for which the “effect of a mutation on the interaction” value is given as “with no effect”.
V145I: the “effect of a mutation on the interaction” value is listed as “with no effect”.

In a further assay the parent is B1. As to conditions: with at2l2_human PHYKPL.
For T183I, the “effect of a mutation on the interaction” value is reported as “with no effect”.
Turning to V145I, the “effect of a mutation on the interaction” value is recorded as “with no effect”.

The next assay covers variants of B1. As to conditions: with ip6k2_human IP6K2, Q9UHH9.
T183I: the “effect of a mutation on the interaction” value is reported as “with no effect”.
Still for that read-out and setting: the same measure for V145I: “with no effect”.

In the next assay the parent is B1. Conditions: with optn_human OPTN.
With T183I, the “effect of a mutation on the interaction” value is recorded as “with no effect”.
In the case of Y266C, the “effect of a mutation on the interaction” value is “disrupting interaction strength”.
For S141A, the “effect of a mutation on the interaction” value was “with no effect”.
For the variant V145I, the “effect of a mutation on the interaction” value was “with no effect”.

The next assay covers variants of B2. Conditions: with sgta_human SGTA.
As to D49A, the “effect of a mutation on the interaction” value is reported as “with no effect”.

Variants of B2 are the subject of the next assay. Conditions: with ric8a_human RIC8A.
On to D49A, for which the “effect of a mutation on the interaction” value is listed as “with no effect”.

A further assay covers variants of B3. As to conditions: with aka7g_human AKAP7, Q9P0M2.
With R126Q, the “effect of a mutation on the interaction” value is recorded as “disrupting interaction strength”.

In the next assay the parent is B4. As to conditions: with ubp2_human USP2, O75604.
In the case of N328S, the “effect of a mutation on the interaction” value is listed as “with no effect”.

The variants in the next assay derive from B5. As to conditions: with tri27_human TRIM27, P14373.
In the case of V340G, the “effect of a mutation on the interaction” value is “with no effect”.

A further assay covers variants of B6. As to conditions: with rbpms_human RBPMS.
For R207G, the “effect of a mutation on the interaction” value is listed as “with no effect”.

Another assay covers variants of B7. As to conditions: with tfp11_human TFIP11, Q9UBB9.
Consider G17S, for which the “effect of a mutation on the interaction” value is given as “with no effect”.

In the next assay the parent is B7. Conditions: with tpm3_human TPM3, P06753.
Regarding G17S, the “effect of a mutation on the interaction” value is “with no effect”.

The variants in another assay derive from B8. Conditions: with thap7_human THAP7, Q9BT49.
As for M60L, the “effect of a mutation on the interaction” value was “with no effect”.
Regarding Q207R, the “effect of a mutation on the interaction” value is “disrupting interaction strength”.
